Results as given in the supplement of paper PMC10567573.

B1: SPDEF (parent)
chain: FQELAGKELCAMSEEQFRQRSPLG

Variants of: B1
Test: protein stability index of a GFP-peptide fusion (GPS, HEK-293T) (PSI 1-6); higher = more stable
Conditions: c terminus: a fixed tail appended
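Further: lentivirally expressed fusions sorted by FACS into six bins by GFP to DsRed ratio, PSI derived from sequencing read proportions per bin multiplied by bin number.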

Variant	protein stability index
FQKLAGKELCAMSEEQFRQRSPLG [E3K]	3.3
FQFLAGKELCAMSEEQFRQRSPLG [E3F]	1.95
FQYLAGKELCAMSEEQFRQRSPLG [E3Y]	2.69
FQLLAGKELCAMSEEQFRQRSPLG [E3L]	2.22
FQRLAGKELCAMSEEQFRQRSPLG [E3R]	3.33
FQWLAGKELCAMSEEQFRQRSPLG [E3W]	1.72
FQQLAGKELCAMSEEQFRQRSPLG [E3Q]	3.45
FQSLAGKELCAMSEEQFRQRSPLG [E3S]	2.34
FQALAGKELCAMSEEQFRQRSPLG [E3A]	3.06
FQTLAGKELCAMSEEQFRQRSPLG [E3T]	2.22
FQNLAGKELCAMSEEQFRQRSPLG [E3N]	3.09
FQELAGHELCAMSEEQFRQRSPLG [K7H]	2.86
FQELAGMELCAMSEEQFRQRSPLG [K7M]	2.97
FQELAGYELCAMSEEQFRQRSPLG [K7Y]	1.58
FQELAGVELCAMSEEQFRQRSPLG [K7V]	2.61
FQELAGRELCAMSEEQFRQRSPLG [K7R]	2.3
FQELAGWELCAMSEEQFRQRSPLG [K7W]	1.73
FQELAGEELCAMSEEQFRQRSPLG [K7E]	3.66
FQELAGKELCAMSEEQFRFRSPLG [Q19F]	2.23
FQELAGKELCAMSEEQFRPRSPLG [Q19P]	2.74
FQELAGKELCAMSEEQFRHRSPLG [Q19H]	2.93
FQELAGKELCAMSEEQFRYRSPLG [Q19Y]	2.3
FQELAGKELCAMSEEQFRKRSPLG [Q19K]	2.74
FQELAGKELCAMSEEQFRWRSPLG [Q19W]	1.59

Variant	protein stability index
FQELAGKELCAMSEEQFRCRSPLG [Q19C]	2.67
FQELAGKELCAMSEEQFRIRSPLG [Q19I]	2.39
FQELAGKELCAMSEEQFRNRSPLG [Q19N]	2.11
FQELAGKELCAMSEEQFRRRSPLG [Q19R]	2.4
FQELAGKELCAMSEEQFRARSPLG [Q19A]	2.67
FQELAGKEICAMSEEQFRQRSPLG [L9I]	3.19
FQELAGKESCAMSEEQFRQRSPLG [L9S]	3.23
FQELAGKEQCAMSEEQFRQRSPLG [L9Q]	4.25
FQELAGKETCAMSEEQFRQRSPLG [L9T]	3.69
FQELAGKEVCAMSEEQFRQRSPLG [L9V]	2.71
FQELAGKEYCAMSEEQFRQRSPLG [L9Y]	3.25
FQELAGKERCAMSEEQFRQRSPLG [L9R]	3.24
FQELAGKELCAMSEEQFRQRYPLG [S21Y]	2.96
FQELAGKELCAMSEEQFRQRHPLG [S21H]	2.82
FQELAGKELCAMSEEQFRQRCPLG [S21C]	2.51
FQELAGKELCAMSEEQFRQRKPLG [S21K]	2.44
FQELAGKELCAMSEEQFRQRPPLG [S21P]	2.43
FQELAGKELCAMSEEQFRQRDPLG [S21D]	3.26
FQELAGKELCAMSEEQFRQRMPLG [S21M]	2.74
FQELAGKELCAMSEEQFRQRFPLG [S21F]	3.17
FQELAGKELCAMSEEQFRQRRPLG [S21R]	2.95
FQELAGKELCAMSEEQFRQREPLG [S21E]	2.58
FQELAGKELCAMSEEQFRQRTPLG [S21T]	2.59
FQELAGKELCAMAEEQFRQRSPLG [S13A]	3.62

Variant	protein stability index
FQELAGKELCAMMEEQFRQRSPLG [S13M]	2.45
FQELAGKELCAMNEEQFRQRSPLG [S13N]	2.48
FQELAGKELCAMQEEQFRQRSPLG [S13Q]	2.62
FQELAGKELCAMSEEQFRQPSPLG [R20P]	2.58
FQELAGKELCAMSEEQFRQFSPLG [R20F]	2.2
FQELAGKELCAMSEEQFRQESPLG [R20E]	3.71
FQELAGKELCAMSEEQFRQYSPLG [R20Y]	2.43
FQELAGKELCAMSEEQFRQHSPLG [R20H]	2.74
FQELAGKELCAMSEEQFRQNSPLG [R20N]	3.04
FQELAGKELCAMSEEQFRQQSPLG [R20Q]	2.72
FQELAGKELCAMSGEQFRQRSPLG [E14G]	2.21
FQELAGKELCAMSKEQFRQRSPLG [E14K]	2.15
FQELAGKELCAMSNEQFRQRSPLG [E14N]	2.81
FQELAGKELCAMSQEQFRQRSPLG [E14Q]	2.63
FQELAGKELCAMSREQFRQRSPLG [E14R]	2.52
FQELAGKELCAMSIEQFRQRSPLG [E14I]	1.8
FQELAGKELCAMSHEQFRQRSPLG [E14H]	2.47
FQELAGKELCAMSYEQFRQRSPLG [E14Y]	2.49
FQELAGKELCAMSCEQFRQRSPLG [E14C]	2.46
FQELAGKELCAMSDEQFRQRSPLG [E14D]	2.89
FWELAGKELCAMSEEQFRQRSPLG [Q2W]	2.14
FRELAGKELCAMSEEQFRQRSPLG [Q2R]	3.32
FYELAGKELCAMSEEQFRQRSPLG [Q2Y]	2.96
FTELAGKELCAMSEEQFRQRSPLG [Q2T]	1.94

Variant	protein stability index
FFELAGKELCAMSEEQFRQRSPLG [Q2F]	3.35
FIELAGKELCAMSEEQFRQRSPLG [Q2I]	2.17
FNELAGKELCAMSEEQFRQRSPLG [Q2N]	4.11
FAELAGKELCAMSEEQFRQRSPLG [Q2A]	2.07
FPELAGKELCAMSEEQFRQRSPLG [Q2P]	2.86
FMELAGKELCAMSEEQFRQRSPLG [Q2M]	2.65
NQELAGKELCAMSEEQFRQRSPLG [F1N]	4.72
PQELAGKELCAMSEEQFRQRSPLG [F1P]	4.49
EQELAGKELCAMSEEQFRQRSPLG [F1E]	5.36
VQELAGKELCAMSEEQFRQRSPLG [F1V]	4.27
DQELAGKELCAMSEEQFRQRSPLG [F1D]	4.94
HQELAGKELCAMSEEQFRQRSPLG [F1H]	4.02
LQELAGKELCAMSEEQFRQRSPLG [F1L]	4.45
IQELAGKELCAMSEEQFRQRSPLG [F1I]	3.88
FQELAGKELCAMSEEQFEQRSPLG [R18E]	3.31
FQELAGKELCAMSEEQFWQRSPLG [R18W]	2
FQELAGKELCAMSEEQFFQRSPLG [R18F]	2.21
FQELAGKELCAMSEEQFNQRSPLG [R18N]	2.96
FQELAGKELCAMSEEQFMQRSPLG [R18M]	2.51
FQELAGKELCAMSEEQFIQRSPLG [R18I]	2.73
FQELAGKELCAMSEEAFRQRSPLG [Q16A]	3.12
FQELAGKELCAMSEELFRQRSPLG [Q16L]	2.2
FQELAGKELCAMSEEEFRQRSPLG [Q16E]	3.06
FQELAGKELCAMSEESFRQRSPLG [Q16S]	2.56

Variant	protein stability index
FQELAGKELCAMSEEHFRQRSPLG [Q16H]	2.43
FQELAGKELCAMSEEKFRQRSPLG [Q16K]	2.28
FQELAGKELCAMSEEMFRQRSPLG [Q16M]	2.23
FQELAGKELCAMSEEYFRQRSPLG [Q16Y]	2.16
FQELAGKELCAMSEEVFRQRSPLG [Q16V]	2.28
FQELAGKELCAMSEEQVRQRSPLG [F17V]	3.1
FQELAGKELCAMSEEQQRQRSPLG [F17Q]	3.34
FQELAGKELCAMSEEQHRQRSPLG [F17H]	3.14
FQELAGKELCAMSEEQIRQRSPLG [F17I]	3.22
FQELAGKELCAMSEEQSRQRSPLG [F17S]	3.14
FQELAGKELCAMSEEQGRQRSPLG [F17G]	3.58
FQELAGKELCFMSEEQFRQRSPLG [A11F]	2.5
FQELAGKELCGMSEEQFRQRSPLG [A11G]	2.94
FQELAGKELCIMSEEQFRQRSPLG [A11I]	1.87
FQELAGKELCDMSEEQFRQRSPLG [A11D]	4.66
FQELAGKELCQMSEEQFRQRSPLG [A11Q]	3.55
FQELAGKELCAMSEEQFRQRSPLC [G24C]	2.49
FQELAGKELCAMSEEQFRQRSPLE [G24E]	2.56
FQELAGKELCAMSEEQFRQRSPLQ [G24Q]	2.44
FQELAGKELCAMSEEQFRQRSPLR [G24R]	2.42
FQELAGKELCAMSEEQFRQRSPLV [G24V]	2.43
FQELAGKELCAMSEEQFRQRSPLA [G24A]	2.94
FQELAGKELCAMSEEQFRQRSPLI [G24I]	2.1
FQELAGKELCAMSEEQFRQRSPLS [G24S]	2.74

Variant	protein stability index
FQELAGKELCAMSEEQFRQRSPLN [G24N]	2.72
FQELAGKELCAMSEEQFRQRSPLK [G24K]	3.44
FQELAGKSLCAMSEEQFRQRSPLG [E8S]	2.12
FQELAGKYLCAMSEEQFRQRSPLG [E8Y]	1.89
FQELAGKFLCAMSEEQFRQRSPLG [E8F]	2.79
FQELAGKELCAMSEEQFRQRSPCG [L23C]	2.63
FQELAGKELCAMSEEQFRQRSPEG [L23E]	3.48
FQELAGKELCAMSEEQFRQRSPRG [L23R]	3.24
FQELAGKELCAMSEEQFRQRSPYG [L23Y]	2.59
FQELAGKELCAMSEEQFRQRSPHG [L23H]	3.18
FQELAGKELAAMSEEQFRQRSPLG [C10A]	3.31
FQELAGKELIAMSEEQFRQRSPLG [C10I]	3.34
FQELAGKELVAMSEEQFRQRSPLG [C10V]	2.93
FQELAGKELQAMSEEQFRQRSPLG [C10Q]	3.46
FQELAGKELLAMSEEQFRQRSPLG [C10L]	2.79
FQELAGKELYAMSEEQFRQRSPLG [C10Y]	2.4
FQELAGKELDAMSEEQFRQRSPLG [C10D]	4.38
FQELAGKELCAMSEEQFRQRSVLG [P22V]	2.87
FQELAGKELCAMSEEQFRQRSILG [P22I]	2.42
FQELAGKELCAMSEEQFRQRSMLG [P22M]	2.56
FQELAGKELCAMSEEQFRQRSTLG [P22T]	2.63
FQELAGKELCAMSEEQFRQRSFLG [P22F]	2.43
FQELAGKELCAMSEEQFRQRSQLG [P22Q]	2.74
FQELAGKELCAMSEEQFRQRSCLG [P22C]	2.62

Variant	protein stability index
FQELAGKELCAMSEEQFRQRSDLG [P22D]	2.62
FQELAGKELCAMSEEQFRQRSSLG [P22S]	2.92
FQELAGKELCAMSEEQFRQRSWLG [P22W]	1.75
FQELAGKELCAMSEEQFRQRSGLG [P22G]	2.61
FQELAGKELCAMSEEQFRQRSALG [P22A]	2.64
FQELAGKELCAMSEEQFRQRSHLG [P22H]	3.45
FQELRGKELCAMSEEQFRQRSPLG [A5R]	2.17
FQELWGKELCAMSEEQFRQRSPLG [A5W]	1.9
FQELMGKELCAMSEEQFRQRSPLG [A5M]	2.58
FQELGGKELCAMSEEQFRQRSPLG [A5G]	2.88
FQELHGKELCAMSEEQFRQRSPLG [A5H]	2.73
FQELIGKELCAMSEEQFRQRSPLG [A5I]	2.47
FQELTGKELCAMSEEQFRQRSPLG [A5T]	2.46
FQELVGKELCAMSEEQFRQRSPLG [A5V]	3.44
FQELEGKELCAMSEEQFRQRSPLG [A5E]	3.83
FQELAGKELCADSEEQFRQRSPLG [M12D]	3.83
FQELAGKELCAVSEEQFRQRSPLG [M12V]	2.83
FQELAGKELCAASEEQFRQRSPLG [M12A]	3.57
FQELAGKELCAHSEEQFRQRSPLG [M12H]	2.9
FQELAGKELCALSEEQFRQRSPLG [M12L]	2.72
FQELAGKELCANSEEQFRQRSPLG [M12N]	3.3
FQELAGKELCAWSEEQFRQRSPLG [M12W]	1.79
FQELAGKELCAQSEEQFRQRSPLG [M12Q]	3.19
FQELAGKELCAESEEQFRQRSPLG [M12E]	4.28

Variant	protein stability index
FQELAEKELCAMSEEQFRQRSPLG [G6E]	4.18
FQELASKELCAMSEEQFRQRSPLG [G6S]	2.53
FQELAHKELCAMSEEQFRQRSPLG [G6H]	2.73
FQELAQKELCAMSEEQFRQRSPLG [G6Q]	2.68
FQELAKKELCAMSEEQFRQRSPLG [G6K]	3.03
FQELAWKELCAMSEEQFRQRSPLG [G6W]	2.65
FQELARKELCAMSEEQFRQRSPLG [G6R]	2.58
FQELAAKELCAMSEEQFRQRSPLG [G6A]	2.4
FQELAMKELCAMSEEQFRQRSPLG [G6M]	2.46
FQECAGKELCAMSEEQFRQRSPLG [L4C]	4.02
FQERAGKELCAMSEEQFRQRSPLG [L4R]	3
FQEAAGKELCAMSEEQFRQRSPLG [L4A]	3.35
FQESAGKELCAMSEEQFRQRSPLG [L4S]	4.01
FQELAGKELCAMSENQFRQRSPLG [E15N]	2.13
FQELAGKELCAMSEGQFRQRSPLG [E15G]	2.3
FQELAGKELCAMSEKQFRQRSPLG [E15K]	2.24
FQELAGKELCAMSEWQFRQRSPLG [E15W]	2.56
FQELAGKELCAMSEFQFRQRSPLG [E15F]	1.98
FQELAGKELCAMSEVQFRQRSPLG [E15V]	1.93
FQELAGKELCAMSECQFRQRSPLG [E15C]	2.19
